Target: T1, FLAG-2xStrep-PNO1 (UniProt Q9NRX1 1-252)
T1 construct: also called PNO1 bait protein
Assay: pull-down
Conditions: partners not purified

T1 sequence (Q9NRX1 whole entry): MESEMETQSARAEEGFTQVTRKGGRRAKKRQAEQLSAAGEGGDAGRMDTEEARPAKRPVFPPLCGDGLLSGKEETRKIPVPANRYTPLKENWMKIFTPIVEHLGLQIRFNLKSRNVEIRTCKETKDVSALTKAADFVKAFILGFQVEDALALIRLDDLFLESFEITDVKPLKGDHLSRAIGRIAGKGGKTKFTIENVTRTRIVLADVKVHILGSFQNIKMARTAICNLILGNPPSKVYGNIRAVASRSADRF

Binder	fold increase of association during lytic replication over latency (densitometry of pulldown blots, normalised to PNO1) [fold]
BUD23 (natural protein, human (endogenous in TREx BCBL1-Rta), UniProt O43709 1-281, looked up) MASRGRRPEHGGPPELFYDETEARKYVRNSRMIDIQTRMAGRALELLYLPENKPCYLLDIGCGTGLSGSYLSDEGHYWVGLDISPAMLDEAVDREIEGDLLLGDMGQGIPFKPGTFDGCISISAVQWLCNANKKSENPAKRLYCFFASLFSVLVRGSRAVLQLYPENSEQLELITTQATKAGFSGGMVVDYPNSAKAKKFYLCLFSGPSTFIPEGLSENQDEVEPRESVFTNERFPLRMSRRGMVRKSRAWVLEKKERHRRQGREVRPDTQYTGRKRKPRF	4.3
NOC4L (natural protein, human (endogenous in TREx BCBL1-Rta), UniProt Q9BVI4 1-516, looked up) MEREPGAAGVRRALGRRLEAVLASRSEANAVFDILAVLQSEDQEEIQEAVRTCSRLFGALLERGELFVGQLPSEEMVMTGSQGATRKYKVWMRHRYHSCCNRLGELLGHPSFQVKELALSALLKFVQLEGAHPLEKSKWEGNYLFPRELFKLVVGGLLSPEEDQSLLLSQFREYLDYDDTRYHTMQAAVDAVARVTGQHPEVPPAFWNNAFTLLSAVSLPRREPTVSSFYVKRAELWDTWKVAHLKEHRRVFQAMWLSFLKHKLPLSLYKKVLLIVHDAILPQLAQPTLMIDFLTRACDLGGALSLLALNGLFILIHKHNLEYPDFYRKLYGLLDPSVFHVKYRARFFHLADLFLSSSHLPAYLVAAFAKRLARLALTAPPEALLMVLPFICNLLRRHPACRVLVHRPHGPELDADPYDPGEEDPAQSRALESSLWELQALQRHYHPEVSKAASVINQALSMPEVSIAPLLELTAYEIFERDLKKKGPEPVPLEFIPAQGLLGRPGELCAQHFTLS	3.1
